Laboratory results from article PMC9531334.

Target: StnCBP-HA-NLuc
Assay: SLC assay (split-luciferase complementation in leaves)
Details: luminescence intensity/50 mm2 leaf area; n = 3; parent: est. 3500; read off a plot

Substance: CLuc-GFP-HC-Pro^O V346I
- response: 3300
